Measurements: patent US20130136736A1 (Ablynx, published 2013)
Blank lines part the entries; values can stand above or below the molecule they belong to.

Key:
[1] = target: ultra-large von Willebrand factor (ULvWF) (human) (UniProt P04275); assay: cell-based or functional assay
[2] = target: T1, human von Willebrand Factor (vWF) (human, UniProt P04275 764-2813); assay: ELISA: vWF coated on the plate, nanobody titrated from 10 µg/ml in 3-fold steps, detection with mouse anti-myc and anti-mouse-HRP, OD 405 nm
T1 construct: Multimeric plasma protein; The species of the vWF on the BIACORE chip and ELISA plates is not restated there; also called vWF (Red Cross); human vWF
Protocol: The plate was coated overnight at 4° C. The plate was then washed with PBS-Tween and blocked for two hours at room temperature with PBS-1% casein. After washing, the samples were applied starting at a concentration of 10 μg/ml and 3-fold dilutions were made in PBS. After a two hours incubation period, the plates were washed and mouse monoclonal anti-myc antibody at a 1000-fold dilution was applied for 1 hour at room temperature. The plates were washed and polyclonal anti-mouse-HRP (DAKO) was applied at a 1000-fold dilution for one hour at room temperature. The plates were washed and ABTS/H₂O₂ substrate was applied. The OD 405 nm was measured.

[3] = target: T1, human von Willebrand Factor (vWF); assay: BIACORE (SPR): vWF amine-coupled to a CM5 chip, nanobody injected at 1.3 nM
Protocol: (§1) The CM5 surface of the chip was activated by the injection of EDC/NHS (1:1 mix of 0.4 M 1-ethyl-3-(3-dimethylaminopropyl)-carbodiimide and 0.1 M N-hydroxysuccinimide in water) for 7 minutes. […] The excess of reactive groups was deactivated with 1 M Ethanolamine-HCl (pH 8.5) for 7 minutes. The flowrate was kept constant during the immobilization procedure at 5 ul/min The eluent buffer was 0.01 M HEPES (pH 7.4) with 0.15 M NaCl, 3 mM EDTA and 0.005% Surfactant P20.

[4] = target: T1, human von Willebrand Factor (vWF); assay: as above; remark: listed apart in the source
Protocol: as §1

[5] = target: T1, human von Willebrand Factor (vWF); assay: ELISA on coated vWF: supernatant of a 200 µg/ml nanobody solution heated for 1 h at RT to 90 °C, dilution series, OD 405 nm
pig vWF = target: T2, pig vWF (pig, UniProt Q28833 438-2482); assay: sandwich ELISA: nanobody (10 µg/ml) captured on coated anti-myc, plasma from a 5-fold dilution in 2-fold steps, detection with polyclonal anti-vWF-HRP, OD 405 nm
T2 construct: Native vWF in plasma
Protocol: A microtiterplate was coated with mouse anti-myc at 1/1000 overnight at 4° C. The plate was washed with PBS-Tween and blocked for two hours at room temperature with PBS-1% casein. After washing, the nanobodies were applied at a concentration of 10 μg/ml in PBS. After a one hour incubation period, the plates were washed and plasma (dog, pig, human, baboon and cynomologues monkey) was applied starting at a five-fold dilution and making further two-fold dilutions in PBS. The plates were incubated for 1 hour at room temperature. […] The plates were washed and ABTS/H₂O₂ substrate was applied. The OD 405 nm was measured.

[6] = target: T1, human von Willebrand Factor (vWF); assay: ELISA: vWF coated on the plate, nanobody titrated in 3-fold steps, detection with mouse anti-myc and anti-mouse-HRP, OD 405 nm
[7] = target: T1, human von Willebrand Factor (vWF); assay: as above; remark: listed apart in the source

Molecule: ADAMTS-13 (from UniProt Q76LX8 75-1427) (enzyme)
- cleavage of ULvWF platelet strings on perfusion of pooled normal plasma containing ADAMTS-13 [1]: > 95%
- cleavage of ULvWF platelet strings on perfusion of pooled normal plasma containing ADAMTS-13 and ALX-0081 (10 µg/ml) [1]: 95%

B3: 12B6-3a-12B6 (VHH)
chain: QVQLVESGGGLVQAGGALRLSCAASGRTFSYNPMGWFRQAPGKERDVVAAISRTGGSTYYARSVEGRFTISRDNAKRMVYLQMNALKPEDTAVYYCAAAGVRAEDGRVRTLPSEYNFWGQGTQVTVSSAAAEVQLVESGGGLVQAGGALRLSCAASGRTFSYNPMGWFRQAPGKERDVVAAISRTGGSTYYARSVEGRFTISRDNAKRMVYLQMNALKPEDTAVYYCAAAGVRAEDGRVRTLPSEYNFWGQGTQVTVSS
notes: also called bivalent 12B6
- binding result [3]: binds

B5: 12B6-GS9-12B6 (VHH)
chain: QVQLVESGGGLVQAGGALRLSCAASGRTFSYNPMGWFRQAPGKERDVVAAISRTGGSTYYARSVEGRFTISRDNAKRMVYLQMNALKPEDTAVYYCAAAGVRAEDGRVRTLPSEYNFWGQGTQVTVSSGGGGSGGGSEVQLVESGGGLVQAGGALRLSCAASGRTFSYNPMGWFRQAPGKERDVVAAISRTGGSTYYARSVEGRFTISRDNAKRMVYLQMNALKPEDTAVYYCAAAGVRAEDGRVRTLPSEYNFWGQGTQVTVSS
notes: also called bivalent 12B6
- binding result [3]: binds

B8: 12A2H1 (VHH)
VHH: EVQLVESGGGLVQPGGSLRLSCAASGRTFSYNPMGWFRQAPGKGRELVAAISRTGGSTYYPDSVEGRFTISRDNAKRMVYLQMNSLRAEDTAVYYCAAAGVRAEDGRVRTLPSEYTFWGQGTQVTVSS
notes: Humanised 12A2, monovalent
- binding result [5]: binds

B10: 12B6H1 (VHH)
VHH: EVQLVESGGGLVQPGGSLRLSCAASGRTFSYNPMGWFRQAPGKGRDVVAAISRTGGSTYYARSVEGRFTISRDNAKRMVYLQMNSLRAEDTAVYYCAAAGVRAEDGRVRTLPSEYNFWGQGTQVTVSS
notes: Humanised 12B6, monovalent
- EC50 (read off the curve) [6]: ~0.02 mg/L

B11: 12B6H2 (VHH)
VHH: EVQLVESGGGLVQPGGSLRLSCAASGRTFSYNPMGWFRQAPGKGREVVAAISRTGGSTYYARSVEGRFTISRDNAKRMVYLQMNSLRAEDTAVYYCAAAGVRAEDGRVRTLPSEYNFWGQGTQVTVSS
notes: Humanised 12B6, monovalent
- EC50 (read off the curve) [6]: ~0.01 mg/L

B12: 12B6 (VHH)
VHH: QVQLVESGGGLVQAGGALRLSCAASGRTFSYNPMGWFRQAPGKERDVVAAISRTGGSTYYARSVEGRFTISRDNAKRMVYLQMNALKPEDTAVYYCAAAGVRAEDGRVRTLPSEYNFWGQGTQVTVSS
notes: Monovalent llama Nanobody; TALON-purified and detected with anti-myc, so tagged (myc/His)
- EC50 (read off the curve) [2]: ~0.02 mg/L

B13: 14F8 (VHH)
VHH: AVQLVESGGGLVQAGESLRLSCTSSGRAFSYYNTGWFRQAPGKEREFVAAISWSGGLTYYADSVKGRFTISRDNAKDMVYLQMASLKPEDTAVYYCAANRRQKTVQMGERAYDYWGQGTQVTVSS
notes: as for B12
- EC50 (read off the curve) [2]: ~0.02 mg/L

B14: 12A5H1 (VHH)
VHH: EVQLVESGGGLVQPGGSLRLSCAASGRIFSIGAMGMYRQAPGKGRELVATITSGGSTNYADPVKGRFTISRDGPKNTVYLQMNSLRAEDTAVYYCYANLKQGSYGYRFNDYWGQGTQVTVSS
notes: Humanised 12A5, monovalent; TALON-purified, so His-tagged
- EC50 (read off the curve) [7]: ~0.005 mg/L

B15: 12A5H2 (VHH)
VHH: EVQLVESGGGLVQPGGSLRLSCAASGRIFSIGAMGMYRQAPGKGRELVATITSGGSTNYADPVKGRFTISRDGAKNTVYLQMNSLRAEDTAVYYCYANLKQGSYGYRFNDYWGQGTQVTVSS
notes: as for B14
- EC50 (read off the curve) [7]: ~0.03 mg/L

B16: ADAMTS-13 (protein)
chain: AAGGILHLELLVAVGPDVFQAHQEDTERYVLTNLNIGAELLRDPSLGAQFRVHLVKMVILTEPEGAPNITANLTSSLLSVCGWSQTINPEDDTDPGHADLVLYITRFDLELPDGNRQVRGVTQLGGACSPTWSCLITEDTGFDLGVTIAHEIGHSFGLEHDGAPGSGCGPSGHVMASDGAAPRAGLAWSPCSRRQLLSLLSAGRARCVWDPPRPQPGSAGHPPDAQPGLYYSANEQCRVAFGPKAVACTFAREHLDMCQALSCHTDPLDQSSCSRLLVPLLDGTECGVEKWCSKGRCRSLVELTPIAAVHGRWSSWGPRSPCSRSCGGGVVTRRRQCNNPRPAFGGRACVGADLQAEMCNTQACEKTQLEFMSQQCARTDGQPLRSSPGGASFYHWGAAVPHSQGDALCRHMCRAIGESFIMKRGDSFLDGTRCMPSGPREDGTLSLCVSGSCRTFGCDGRMDSQQVWDRCQVCGGDNSTCSPRKGSFTAGRAREYVTFLTVTPNLTSVYIANHRPLFTHLAVRIGGRYVVAGKMSISPNTTYPSLLEDGRVEYRVALTEDRLPRLEEIRIWGPLQEDADIQVYRRYGEEYGNLTRPDITFTYFQPKPRQAWVWAAVRGPCSVSCGAGLRWVNYSCLDQARKELVETVQCQGSQQPPAWPEACVLEPCPPYWAVGDFGPCSASCGGGLRERPVRCVEAQGSLLKTLPPARCRAGAQQPAVALETCNPQPCPARWEVSEPSSCTSAGGAGLALENETCVPGADGLEAPVTEGPGSVDEKLPAPEPCVGMSCPPGWGHLDATSAGEKAPSPWGSIRTGAQAAHVWTPAAGSCSVSCGRGLMELRFLCMDSALRVPVQEELCGLASKPGSRREVCQAVPCPARWQYKLAACSVSCGRGVVRRILYCARAHGEDDGEEILLDTQCQGLPRPEPQEACSLEPCPPRWKVMSLGPCSASCGLGTARRSVACVQLDQGQDVEVDEAACAALVRPEASVPCLIADCTYRWHVGTWMECSVSCGDGIQRRRDTCLGPQAQAPVPADFCQHLPKPVTVRGCWAGPCVGQGTPSLVPHEEAAAPGRTTATPAGASLEWSQARGLLFSPAPQPRRLLPGPQENSVQSSACGRQHLEPTGTIDMRGPGQADCAVAIGRPLGEVVTLRVLESSLNCSAGDMLLLWGRLTWRKMCRKLLDMTFSSKTNTLVVRQRCGRPGGGVLLRYGSQLAPETFYRECDMQLFGPWGEIVSPSLSPATSNAGGCRLFINVAPHARIAIHALATNMGAGTEGANASYILIRDTHSLRTTAFHGQQVLYWESESSQAEMEFSEGFLKAQASLRGQYWTLQSWVPEMQDPQSWKGKEGT
- proteolytic cleavage of the A1-A2-A3 fragment by normal pool plasma (Western blot) (A1A2A3 construct, P04275): resulting in proteolytic cleavage of the fragment

B17: 12B1 (VHH)
VHH: QVQLVESGGGLVQAGGSLRLSCAASGRTFSNYGMGWFRQAPGKEREFVTSISWSGTYTAYSDNVKGRFTISRDNAKNTVYLQMDSLKPEDTAVYYCAAQSRYRSNYYDHDDKYAYWGQGTQVTVSS
notes: as for B12
- EC50 (read off the curve) [2]: ~0.02 mg/L

More lines, now with the values ahead:

- binding result [2]: binds
B1: 12C9 (VHH)
VHH: AVQLVESGGGLVQPGGSLKLSCATSGSIFSSSAMAWYRQASGKQRELVATITSGGRTSYADSVKGRFTISRDNAKNTVYLQMNSLKPEDTAVYDCNFVVDGKRAPWGQGTQVTVSS
notes: as for B12

- binding result [3]: binds
B2: 12B6-GS30-12B6 (VHH)
chain: QVQLVESGGGLVQAGGALRLSCAASGRTFSYNPMGWFRQAPGKERDVVAAISRTGGSTYYARSVEGRFTISRDNAKRMVYLQMNALKPEDTAVYYCAAAGVRAEDGRVRTLPSEYNFWGQGTQVTVSSGGGGSGGGGSGGGGSGGGGSGGGGSGGGGSEVQLVESGGGLVQAGGALRLSCAASGRTFSYNPMGWFRQAPGKERDVVAAISRTGGSTYYARSVEGRFTISRDNAKRMVYLQMNALKPEDTAVYYCAAAGVRAEDGRVRTLPSEYNFWGQGTQVTVSS
notes: also called bivalent 12B6

- binding result [4]: binds
B4: 12A2-3a-12A2 (VHH)
chain: QVKLEESGGGLVQAGGALRLSCAASGRTFSYNPMGWFRQAPGKERDLVAAISRTGGSTYYPDSVEGRFTISRDNAKRMVYLQMNNLKPEDTAVYYCAAAGVRAEDGRVRTLPSEYTFWGQGTQVTVSSAAAEVQLVESGGGLVQAGGALRLSCAASGRTFSYNPMGWFRQAPGKERDLVAAISRTGGSTYYPDSVEGRFTISRDNAKRMVYLQMNNLKPEDTAVYYCAAAGVRAEDGRVRTLPSEYTFWGQGTQVTVSS
notes: also called bivalent 12A2

- binding result [4]: binds
B6: 12A2-GS9-12A2 (VHH)
chain: QVKLEESGGGLVQAGGALRLSCAASGRTFSYNPMGWFRQAPGKERDLVAAISRTGGSTYYPDSVEGRFTISRDNAKRMVYLQMNNLKPEDTAVYYCAAAGVRAEDGRVRTLPSEYTFWGQGTQVTVSSGGGGSGGGSEVQLVESGGGLVQAGGALRLSCAASGRTFSYNPMGWFRQAPGKERDLVAAISRTGGSTYYPDSVEGRFTISRDNAKRMVYLQMNNLKPEDTAVYYCAAAGVRAEDGRVRTLPSEYTFWGQGTQVTVSS
notes: also called bivalent 12A2

- binding result [2]: binds
B7: 12D11 (VHH)
VHH: AVQLVDSGGGLVQAGGSLRLSCTASERTTFSSYTLGWFRQAPGKEREFVGGISWSGVSTDYAEFAKGRFTISRDHAANTVYLEMNSLKPEDTAVYYCAALGRYRSNWRNIGQYDYWGQGTQVTVSS
notes: as for B12

- binding result (pig vWF): binds
B9: 12A2 (VHH)
VHH: QVKLEESGGGLVQAGGALRLSCAASGRTFSYNPMGWFRQAPGKERDLVAAISRTGGSTYYPDSVEGRFTISRDNAKRMVYLQMNNLKPEDTAVYYCAAAGVRAEDGRVRTLPSEYTFWGQGTQVTVSS
notes: 12B6 homologue, monovalent Nanobody

- binding result [2]: binds
B18: 12E3 (VHH)
VHH: EVQLVESGGGLVQAGGSLRLSCAASGRTFNNYGMGWFRQAPGKEREFVTSISWSGSYTAYADNVKGRFTISRDNAKNTVYLQMDSLKPGDTAVYYCAAQSRYSSNYYDHDDKYAYWGQGTQVTVSS
notes: as for B12
